Blank lines part the entries; values can stand above or below the binder they belong to.
Assays:
[1] = target: T1, MRS full-length (in MRS-AIMP3 complex);AIMP3 (in MRS-AIMP3 complex) (human;human?, UniProt P56192;O43324 1-900;1-174, |); assay: MST; labeled RNA (80 nM); MST: PBS, 1-100 uM protein, 80 nM 6-FAM-RNA, temperature not stated; pull-down: 50 mM Tris-HCl pH 7.5, 150 mM NaCl, Ni-NTA (yeast total tRNA pool not listed); conditions: protein: recombinant;recombinant; copies: 1;1; tRNA fold
T1 sequence 1: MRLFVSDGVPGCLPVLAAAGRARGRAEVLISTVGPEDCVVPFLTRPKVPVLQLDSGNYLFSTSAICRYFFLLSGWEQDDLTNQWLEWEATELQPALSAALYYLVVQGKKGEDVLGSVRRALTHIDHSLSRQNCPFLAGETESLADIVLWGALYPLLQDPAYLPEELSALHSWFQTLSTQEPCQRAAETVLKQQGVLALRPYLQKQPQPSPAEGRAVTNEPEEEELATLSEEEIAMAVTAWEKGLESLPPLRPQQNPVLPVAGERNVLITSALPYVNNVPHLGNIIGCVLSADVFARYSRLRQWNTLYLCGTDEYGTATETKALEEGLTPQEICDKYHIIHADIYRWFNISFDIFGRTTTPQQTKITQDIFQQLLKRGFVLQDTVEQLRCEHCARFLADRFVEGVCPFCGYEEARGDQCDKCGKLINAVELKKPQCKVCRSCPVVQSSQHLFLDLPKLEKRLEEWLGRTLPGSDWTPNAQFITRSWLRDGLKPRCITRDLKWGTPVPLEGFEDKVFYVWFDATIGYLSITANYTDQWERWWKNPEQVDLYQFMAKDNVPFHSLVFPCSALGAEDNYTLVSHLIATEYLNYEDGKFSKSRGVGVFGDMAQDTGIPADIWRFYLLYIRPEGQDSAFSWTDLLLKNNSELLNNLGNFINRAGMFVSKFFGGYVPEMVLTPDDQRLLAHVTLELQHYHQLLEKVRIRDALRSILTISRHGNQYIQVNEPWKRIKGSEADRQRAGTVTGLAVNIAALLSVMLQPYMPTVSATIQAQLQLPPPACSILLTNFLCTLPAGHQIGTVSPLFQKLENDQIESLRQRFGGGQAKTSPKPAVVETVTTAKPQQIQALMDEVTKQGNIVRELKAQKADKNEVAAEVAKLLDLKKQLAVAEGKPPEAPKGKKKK
T1 sequence 2: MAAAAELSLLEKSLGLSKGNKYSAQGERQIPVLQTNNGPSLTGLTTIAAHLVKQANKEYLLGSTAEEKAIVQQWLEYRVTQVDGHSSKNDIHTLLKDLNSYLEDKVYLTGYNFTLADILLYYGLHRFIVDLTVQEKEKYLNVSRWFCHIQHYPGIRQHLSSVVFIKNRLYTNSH

[2] = target: T2, MRS221-900 (methionyl-tRNA synthetase without N-terminal GST domain) (human, UniProt P56192 221-900); assay: as above; conditions: protein: recombinant; tags: hexa-His; tRNA fold
T2 sequence: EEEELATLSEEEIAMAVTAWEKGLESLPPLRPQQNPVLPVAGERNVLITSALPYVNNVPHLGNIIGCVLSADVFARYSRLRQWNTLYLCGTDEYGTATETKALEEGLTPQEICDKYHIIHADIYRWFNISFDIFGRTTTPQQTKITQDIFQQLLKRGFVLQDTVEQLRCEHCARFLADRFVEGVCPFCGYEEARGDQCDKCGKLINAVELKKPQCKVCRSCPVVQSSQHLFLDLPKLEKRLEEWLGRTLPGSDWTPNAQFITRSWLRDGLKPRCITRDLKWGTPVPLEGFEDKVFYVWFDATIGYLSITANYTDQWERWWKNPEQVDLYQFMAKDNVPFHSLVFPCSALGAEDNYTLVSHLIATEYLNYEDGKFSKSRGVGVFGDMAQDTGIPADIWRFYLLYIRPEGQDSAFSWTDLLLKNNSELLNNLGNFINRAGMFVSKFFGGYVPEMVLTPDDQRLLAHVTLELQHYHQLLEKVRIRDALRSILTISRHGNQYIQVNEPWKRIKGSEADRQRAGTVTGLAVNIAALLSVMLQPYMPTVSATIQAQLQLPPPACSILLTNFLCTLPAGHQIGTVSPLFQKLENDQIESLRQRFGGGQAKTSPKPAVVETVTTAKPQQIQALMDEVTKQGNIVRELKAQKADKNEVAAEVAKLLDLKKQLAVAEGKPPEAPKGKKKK

[3] = target: T2, MRS221-900 (methionyl-tRNA synthetase …); assay: pull-down (Ni-NTA, fluorescence); almost 2-fold; MST: PBS, 1-100 uM protein, 80 nM 6-FAM-RNA, temperature not stated; pull-down: 50 mM Tris-HCl pH 7.5, 150 mM NaCl, Ni-NTA (yeast total tRNA pool not listed); conditions: protein: recombinant, tags: hexa-His
[4] = target: T1, MRS full-length (in MRS-AIMP3 …); assay: MST; protein labeled with Red-tris-NTA, unlabeled RNA; MST: PBS, 1-100 uM protein, 80 nM 6-FAM-RNA, temperature not stated; pull-down: 50 mM Tris-HCl pH 7.5, 150 mM NaCl, Ni-NTA (yeast total tRNA pool not listed); conditions: protein: recombinant;recombinant; copies: 1;1; label: none (Results); Methods text says 6-FAM-RNA for this assay too; tRNA fold
[5] = target: T2, MRS221-900 (methionyl-tRNA synthetase …); assay: as above; conditions: protein: recombinant; tags: hexa-His; label: none (Results); Methods text says 6-FAM-RNA for this assay too; tRNA fold
[6] = target: T3, AIMP3 with the nanoluciferase large subunit at its N-terminus (LgBit-AIMP3) (human, UniProt O43324 1-174); assay: split reporter (BiFC, NanoBiT); NanoBiT; LgBit on the N- or C-terminus of AIMP3, SmBit on the N- or C-terminus of MRS or on AIMP3; co-expressed in CHO-K1 cells; luminescence measured with cell-permeable substrate; conditions: partners not purified
T3 construct: AIMP3, human; source: CHO-K1 cells, transfected, in live cells; not shown: LgBit (NanoLuc large subunit), N-terminal, kept
T3 sequence (looked up): T1 sequence 2

[7] = target: T4, extended GST domain of human MRS (MRS 1-224) (human, UniProt P56192 1-224); assay: crystal structure; MRS_(1-224)-AIMP3 complex crystallised in 20% PEG 8000, 0.1 M HEPES pH 7.5; molecular replacement; 2.0 A; conditions: both partners purified
T4 construct: methionyl-tRNA synthetase, cytosolic, human, residues 1-224 (GST domain and first part of the linker); also called MRSGST; source: recombinant, obtained as MRS_(1-224)-AIMP3 complex by co-purification
T4 sequence (looked up): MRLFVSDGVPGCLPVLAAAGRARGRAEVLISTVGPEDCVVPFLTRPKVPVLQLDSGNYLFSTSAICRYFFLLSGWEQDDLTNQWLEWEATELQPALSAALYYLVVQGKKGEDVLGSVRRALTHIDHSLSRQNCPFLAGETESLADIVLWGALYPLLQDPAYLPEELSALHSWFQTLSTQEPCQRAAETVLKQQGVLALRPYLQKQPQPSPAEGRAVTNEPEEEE

[8] = target: T5, human MRS without the C-terminal WHEP domain (MRS 1-834) (human, UniProt P56192 1-834); assay: SEC; Superdex 200 10/300 column, Tris-HCl pH 7.5, 150 mM NaCl; molecular weights from a calibration curve of standards; conditions: both partners purified
T5 construct: methionyl-tRNA synthetase, cytosolic, human, residues 1-834; source: E. coli BL21 (DE3), purified (Ni-NTA, size-exclusion chromatography); as complex with AIMP3
T5 sequence (looked up): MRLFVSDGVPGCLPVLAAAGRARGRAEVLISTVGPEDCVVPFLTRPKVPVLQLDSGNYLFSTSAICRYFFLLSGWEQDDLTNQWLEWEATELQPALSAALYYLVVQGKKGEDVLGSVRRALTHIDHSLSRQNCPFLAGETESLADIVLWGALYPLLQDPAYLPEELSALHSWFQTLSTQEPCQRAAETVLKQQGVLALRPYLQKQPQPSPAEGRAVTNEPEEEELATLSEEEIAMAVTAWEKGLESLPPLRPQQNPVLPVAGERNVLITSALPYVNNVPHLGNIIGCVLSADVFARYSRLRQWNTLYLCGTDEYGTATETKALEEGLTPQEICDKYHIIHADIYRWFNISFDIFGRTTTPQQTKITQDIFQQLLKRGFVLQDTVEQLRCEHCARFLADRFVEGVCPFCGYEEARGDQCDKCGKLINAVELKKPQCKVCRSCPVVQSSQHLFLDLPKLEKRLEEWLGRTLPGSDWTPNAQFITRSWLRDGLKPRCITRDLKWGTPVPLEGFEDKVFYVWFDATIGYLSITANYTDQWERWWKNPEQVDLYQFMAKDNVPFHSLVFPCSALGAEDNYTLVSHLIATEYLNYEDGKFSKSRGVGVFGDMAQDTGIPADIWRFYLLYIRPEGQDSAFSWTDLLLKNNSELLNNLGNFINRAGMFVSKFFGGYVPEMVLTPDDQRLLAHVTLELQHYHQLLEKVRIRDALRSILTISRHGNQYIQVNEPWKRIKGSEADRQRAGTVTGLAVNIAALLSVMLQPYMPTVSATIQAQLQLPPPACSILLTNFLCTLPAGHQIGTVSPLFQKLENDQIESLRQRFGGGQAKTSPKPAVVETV

[9] = target: T6, human cytosolic methionyl-tRNA synthetase, full length (MRS 1-900) (human, UniProt P56192 1-900); assay: as above; conditions: both partners purified
T6 construct: methionyl-tRNA synthetase, cytosolic, human, residues 1-900 (900-residue protein); source: recombinant from pET30a or pQE80L plasmids, obtained as MRS-AIMP3 complex by co-purification
T6 sequence (looked up): T1 sequence 1

B1: 6-FAM synthetic elongator tRNAMet (structured_RNA)
RNA: GCCUCGUUAGCGCAGUAGGUAGCGCGUCAGUCUCAUAAUCUGAAGGUCGUGAGUUCGAUCCUCACACGGGGCA
modifications: none stated (synthetic RNA)
- Kd [1]: 31.6 µM
- Kd [2]: 12.8 µM
- binding signal [3]: ~2 fold vs MRS-AIMP3 complex

B2: unlabeled synthetic elongator tRNAMet (structured_RNA)
RNA: B1 RNA
modifications: none stated (synthetic RNA)
- Kd [4]: 60.2 µM
- Kd [5]: 21.6 µM

- fold increase of luciferase activity over background [6]: > 120 fold
B3: MRS with the nanoluciferase small subunit at its N-terminus (SmBit-MRS) (enzyme, human, UniProt P56192 1-900, looked up)
chain: T1 sequence 1
notes: methionyl-tRNA synthetase, cytosolic, human; source: CHO-K1 cells, transfected, in live cells; not shown: SmBit (NanoLuc small subunit), N-terminal, kept

- binding result [7]: binds
- binding result [8]: binds
- binding result [9]: binds
B4: AIMP3 (AARS-interacting multifunctional protein 3) (natural protein, human)
chain: T1 sequence 2
notes: AIMP3, human; 'Genes for full-length human MRS (residues 1-900) and AIMP3' were cloned; the earlier structure (PDB 4bvx) used AIMP3 1-169; source: recombinant from pET30a or pQE80L plasmids, co-purified with MRS or MRS_(1-224)
